Test results from publication PMC12376620, “A Novel OsMPK6‐OsMADS47‐PPKL1/3 Module Controls Grain Shape and Yield in Rice”.

B1: GS3-P2 (dsDNA)
DNA 1: CTCTCCCTTCCATCATTACTTGCCCAAAAACGGCAATCCCCTCCCCTCCATCTCCATGTG
DNA 2: CACATGGAGATGGAGGGGAGGGGATTGCCGTTTTTGGGCAAGTAATGATGGAAGGGAGAG
B2: GW8-P1 (dsDNA)
DNA 1: CTTATAGTCCAACAATTTGAGAGCAATTAATGGTCAAAAATTAAATGAAAAATAGAAATTC
DNA 2: GAATTTCTATTTTTCATTTAATTTTTGACCATTAATTGCTCTCAAATTGTTGGACTATAAG
B3: GS3-P3 (dsDNA)
DNA 1: GCCACCCTCCCTACGACGTAGCCAGATATGGGTGGAGAGGTAAGCGCCGCCGCCGCTGC
DNA 2: GCAGCGGCGGCGGCGCTTACCTCTCCACCCATATCTGGCTACGTCGTAGGGAGGGTGGC
B4: GS3-P4 (dsDNA)
DNA 1: CCACCGTCCCCCCTTCCCCCTCCAACCAGATCTGGGAGGAAGGGAGGGAGGGAGGGGAG
DNA 2: CTCCCCTCCCTCCCTCCCTTCCTCCCAGATCTGGTTGGAGGGGGAAGGGGGGACGGTGG
B5: GW8-P2 (dsDNA)
DNA 1: GTAACTGACTACCCCCAGTTCCTGCCCTCTTGGGCCTTGGTATTGTTGCTCCAAG
DNA 2: CTTGGAGCAACAATACCAAGGCCCAAGAGGGCAGGAACTGGGGGTAGTCAGTTAC
B6: GW8-P3 (dsDNA)
DNA 1: CTACTTTCCTTATTCCACTAGAAATCATATATACCTTTCTCACTCTACATAATC
DNA 2: GATTATGTAGAGTGAGAAAGGTATATATGATTTCTAGTGGAATAAGGAAAGTAG
B7: GS3-P1 (dsDNA)
DNA 1: GCTGCACAACCCGCGATGCCGTCGGCCGGATTTGGGAGGTGGAGCGTCGCCGCCCTCC
DNA 2: GGAGGGCGGCGACGCTCCACCTCCCAAATCCGGCCGACGGCATCGCGGGTTGTGCAGC
B8: GS3-P5 (dsDNA)
DNA 1: CTTTTCTAAACGATATTCTTCATGAACCAAAGGAGGGAAGCTCATTCCGAAAATTTTTCC
DNA 2: GGAAAAATTTTCGGAATGAGCTTCCCTCCTTTGGTTCATGAAGAATATCGTTTAGAAAAG

Target: MBP-OsMADS47 (Oryza sativa (cv. Nipponbare, NIP?), UniProt Q5K4R0 1-250)
Sequence (Q5K4R0 whole entry): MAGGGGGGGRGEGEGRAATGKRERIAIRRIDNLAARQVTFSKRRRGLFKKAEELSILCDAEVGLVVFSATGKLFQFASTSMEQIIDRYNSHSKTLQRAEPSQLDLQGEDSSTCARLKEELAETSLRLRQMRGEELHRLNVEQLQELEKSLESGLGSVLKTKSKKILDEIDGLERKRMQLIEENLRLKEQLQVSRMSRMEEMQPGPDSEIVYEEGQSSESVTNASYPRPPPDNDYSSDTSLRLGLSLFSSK
Assay: EMSA; EMSA buffer not stated (performed as described previously, ref 61); unlabeled competitors at 10x, 100x, 1000x
Settings: protein: recombinant; tags: MBP (N-terminal, pMAL); chain copies: 2; label: biotin 3'-end; blunt

Binding result, binds:
B1, B2, B3, B4, B5, B6, B7, B8
